Values quoted from earlier work as cited in paper PMC8544432.
Read-outs that look alike come from different tables or passages of the source.

Assays:
[1] = biological target: PBX1 (Homo sapiens) (UniProt P40424)
[2] = biological target: PBX1 (Homo sapiens) (UniProt P40424); remark: listed apart in the source

UniProt P40424, sequence (P40424 whole entry): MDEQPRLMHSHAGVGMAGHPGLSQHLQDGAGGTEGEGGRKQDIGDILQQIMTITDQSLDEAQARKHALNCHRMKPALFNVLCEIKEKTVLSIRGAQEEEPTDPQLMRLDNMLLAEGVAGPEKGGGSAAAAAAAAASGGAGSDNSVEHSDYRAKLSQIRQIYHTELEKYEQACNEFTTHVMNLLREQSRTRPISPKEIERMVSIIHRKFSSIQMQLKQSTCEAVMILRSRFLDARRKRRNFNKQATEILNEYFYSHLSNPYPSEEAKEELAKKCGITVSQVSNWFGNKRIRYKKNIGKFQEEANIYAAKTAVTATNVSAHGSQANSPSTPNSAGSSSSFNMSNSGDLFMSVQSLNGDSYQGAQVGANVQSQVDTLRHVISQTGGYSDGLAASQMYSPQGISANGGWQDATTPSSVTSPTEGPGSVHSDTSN

Kd [1] | Kd [2] | Substance
18 nM | – | PREP1 (from UniProt P55347)
– | 80 nM | MEIS1 (from UniProt O00470)
